B1: (FoxP2)_#9 (scFv)
scFv (VL-linker-VH-His/HA tag): SYELTQPPSVSVAPGKTARITCGGNNIGSKSVHWYQQKPGQAPVLVIYYDSDRPSGIPERFSGSNSGNTATLTISRVEAGDEADYYCQVWDSSSDHWVFGGGTKLTVLGSRGGGGSGGGGSGGGGSLEMAQVQLVQSGGGLVQPGGSLKLSCAASGFAFSGSSLHWVRQASGKGLEWVGRITSKAYNYATLYAASVKGRFTISRDDSKNTAYLQMNSLQTEDTAVYYCTQTGDSSAYWGQGTLVTVSSTSGQAGQHHHHHHGAYPYDVPDYAS
notes: also called EXT019-9; EXT019-09 scFv phage clone
B2: (FoxP2)_#12 (scFv)
scFv (VL-linker-VH-His/HA tag): SYELTQPPSVSVAPGKTARITCGGNNIGSKSVHWYQQKPGQAPVLVIYYDSDRPSGIPERFSGSNSGNTATLTISRVEAGDEADYYCQVWDSSSDHRVFGGGTKVTVLGSRGGGGSGGGGSGGGGSLEMAEVQLVESGGGLVQPGGSLRLSCAASGFTFSSYWMNWVRQAPGKGLEWVANIKQDGSEKNYVDSVKGRFTISRDNAKNSLYLQMNSLRGEDTAVYYCARYGGGPYDSWGQGTLVTVSSTSGQAGQHHHHHHGAYPYDVPDYAS
notes: also called EXT019-12 scFv phage clone
B3: (FoxP2)_#13 (scFv)
scFv (VL-linker-VH-His/HA tag): LPVLTQPPSVSVAPGKTARITCGGNNIGSKSVHWYQQKPGQAPVLVIYYDSDRPSGIPERFSGSNSGNTATLTISRVEAGDEADYYCQVWDSSSAYVFGTGTKVTVLGSRGGGGSGGGGSGGGGSLEMAQVQLQQSGPGLVKPSQTLSLTCAISGDSVSSNSAAWNWIRQSPSRGLEWLGRTYYRSKWYNDYAVSVKSRITINPDTSKNQFSLQLNSVTPEDTAVYYCARYYSTSLDSWGQGTLVTVSSTSGQAGQHHHHHHGAYPYDVPDYAS
notes: also called EXT019-13 scFv phage clone
B4: (FoxP2)_#6 (scFv)
scFv (VL-linker-VH-His/HA tag): QSVVTQPPSVSGAPGQGVTIPCTGSSSNIGAGYDVHWYQQLPGTAPKLLIYGNNNRPSGVPDRFSGSRSGSSASLAITGLQAEDEADYYCQSYDSSLSDVVFGGGTKLTVLGSRGGGGSGGGGSGGGGSLEMAEVQLVQSGAEVKKPGESLKISCKGSGYNFASEWIGWVRQMPGKGLEWMGLIYPAESEITYSPSFQGQVTISVDKSISTAYLQWSSLKASDTAMYYCARAWDANYIYMDIWGQGTLVTVSSTSGQAGQHHHHHHGAYPYDVPDYAS
notes: also called EXT019-6; EXT019-06 scFv phage clone
B5: (FoxP2)_#15 (scFv)
scFv (VL-linker-VH-His/HA tag): SYVLTQPPSVSVAPGETASITCGANNIGSESVHWYQQKSGQAPVLVIYYDSDRPSGIPERFSGSNSDNTATLTISRVEAGDEADYYCQVWDHINDHYVFGSGTKVTVLGSRGGGGSGGGGSGGGGSLEMAEVQLVESGGGLAQPGGSLRLSCAASGFSFSNYAMSWVRQAPGTGLEWVAGISGRGGSIHYADSVKGRFTISRDNSQSTVFLQMNNLGAEDTAIYYCAKSSEDYYFYHMDAWGIGTTVTVSSTSGQAGQHHHHHHGAYPYDVPDYAS
notes: also called EXT019-15 scFv phage clone
B6: (FoxP2)_#4 (scFv)
scFv (VL-linker-VH-His/HA tag): QPVLTQPPSVSVAPGKTARITCGGNNIGSKSVHWYQQKPGQAPVLVIYYDSDRPSGIPERFSGSNSGNTATLTISRVEAGDEADYYCQVWDSSSDHPVFGGGTKLTVLGSRGGGGSGGGGSGGGGSLEMAQVQLVQSGAEVKKPGSSVKVSCKASGGTFSSYAISWVRQAPGQGLEWMGGIIPIFGTANYAQKFQGRVTITADESTSTAYMELSSLRSEDTAVYYCARSSYWWTSDRWGQGTLVTVSSTSGQAGQHHHHHHGAYPYDVPDYAS
notes: also called EXT019-4; EXT019-04 scFv phage clone
B7: (FoxP2)_#8 (scFv)
scFv (VL-linker-VH-His/HA tag): QSVLTQPPSVSEAPRQRVTISCSGSSSNIGNNAVNWYQQLPGKAPKLLIYYDDLLPSGVSDRFSGSKSGTSASLAISGLQSEDEADYYCAAWDDSLNGPVFGTGTKVTVLGSRGGGGSGGGGSGGGGSLEMAEVQLVQSGAEVKKPGASVKVSCKASGYNFTSYGISWVRQAPGQGLEWMGWISAYNGNTNYAQKLQGRVTMTTDTSTSTAYMELRSLRSDDTAVYYCARDWDYDFLTGWDGMDVWGQGTTVTVSSTSGQAGQHHHHHHGAYPYDVPDYAS
notes: also called EXT019-8; EXT019-08 scFv phage clone
B8: (FoxP2)_#20 (scFv)
scFv (VL-linker-VH-His/HA tag): SYVLTQPPSVSVAPGKTARITCGGNNIGSKSVHWYQQKPGQAPVLVIYYDSDRPSGIPERFSGSNSGNTATLTISRVEAGDEADYYCQVWDSSSDRVVFGGGTKLTVLGSRGGGGSGGGGSGGGGSLEMAQVQLQQSGPGLVKPSQTLSLTCAISGDSISSKSAAWNWIRQSPSRGLEWLGRTYYRSKWYYEYAPSVRSRITINRDTSKNQFSLQLNSVTPEDTAVYYCARSTGTFDYWGQGTLVTVSSTSGQAGQHHHHHHGAYPYDVPDYAS
notes: also called EXT019-20 scFv phage clone
B9: EXT017-26 scFv phage clone (scFv)
scFv: SYVLTQPPSVSVAPGQTARITCGGTDIRRKTVHWYQQKPGLAPVLVLYDDSDRPSGIPERFSGSNSGNTATLTISRVEGGDEADYYCQVWDNDNDHYVFGPGTKVTVLGSRGGGGSGGGGSGGGGSLEMAEVQLVQSGAEVKKPGASVKVSCKASGYTFTNYYIHWVRQTPGEGLEWMGIIRPSGGNTNYAQKFQGRVTMTRDTSTRTVYMELSSLRSEDTAVYYCARSWDTFSDEWGQGTLVTVSSTSGQAGQHHHHHHGAYPYDVPDYAS
notes: also called phage clone #26
B10: #30 (scFv)
scFv: SYVLTQPPSVSVAPGQTARMTCEGSNLGSKSVHWYQQKPGQAPVLVVHDDSDRPSGIPDRFSGSKSGNTATLTISRVEAGDEADYYCQVWHSSSDHYVFGTATKVTVLGSRGGGGSGGGGSGGGGSLEMAQVQLVQSGAEVKKPGASVKVSCKASGYTFTNYYIHWVRQAPGQGLEWMGIIRPSGGITNYAQKFQGRVSMTRDTSTSTVYMELSSLRSEDTAVYYCARSWHENSGVDSWGQGTLVTVSSTSGQAGQHHHHHHGAYPYDVPDYAS
notes: also called EXT017-30; EXT017-30 scFv phage clone

The first test deals with T1, HLA-A*02:01 on T2 cells alone (no peptide added) (human).
T1 construct: TAP-deficient T2 cells without pulsed peptide; negative control target, and the HLA molecule whose stabilisation by peptides is read in the T2 stabilization assay; also called HLA-A*02 molecule; HLA-A2 molecule
In words: flow cytometry, phage on T2 without peptide.
With B1, the binding result is “no binding”.
Turning to B2, the binding result is reported as “no binding”.
Same read-out and setting: for B3 the value was “no binding”; for B4, “no binding”; for B5, “no binding”.
Consider B6, for which the binding result is “no binding”.
The same measure, in the same setting: for B7 the value was “no binding”; for B8, “no binding”.

For the next test, the target named is T1, HLA-A*02:01 on T2 cells alone (no …). Briefly: flow cytometry, phage on T2 without peptide; secondary only 118, unstained 95.2. (A flow cytometer gives signals particle by particle.)
Take B1: the “Median:FITC-A” value amounted to 140.
As to B2, the “Median:FITC-A” value worked out at 151.
Same read-out and setting: then B3, with 143.
In the case of B4, the “Median:FITC-A” value came to 146.
For B5, the “Median:FITC-A” value turned out to be 145.
Consider B6, for which the “Median:FITC-A” value turned out to be 147.
Regarding B7, the “Median:FITC-A” value was found to be 141.
The same measure, in the same setting: for B8 the value was 149.

The target in the next test is T2, Foxp3-7 peptide/HLA-A*02:01 complex on the cell surface (human).
T2 construct: also called Foxp3-7/HLA-A2 complex
In words: flow cytometry, phage on T2 + Foxp3-7 peptide; secondary only 116, unstained 93.8.
In the case of B9, the “Median:FITC-A” value is 410.

The target in the next test is T3, T2+EW (Homo sapiens, UniProt A*02:01).
T3 construct: on the surface of T2 cells; irrelevant control peptide; also called EW peptide/HLA-A*02:01 complex on T2 cells; T2 pulsed with EW peptide
Briefly: flow cytometry, phage on T2 + EW peptide; secondary only 310, unstained 93.
For the molecule B9, the “Median:FITC-A” value turned out to be 375.
As for B10, the “Median:FITC-A” value is 378.

For the next test, the target named is T1, HLA-A*02:01 on T2 cells alone (no …). In words: flow cytometry, phage on T2 without peptide; secondary only 320, unstained 91.4.
With B9, the “Median:FITC-A” value was determined as 385.
As to B10, the “Median:FITC-A” value was 354.

The target is the same in another test. Briefly: flow cytometry, phage on T2 without peptide; secondary only 121, unstained 106.
B9: the “Median:FITC-A” value came out at 146.

In a further test the target is T2, Foxp3-7 peptide/HLA-A*02:01 complex on …. Briefly: flow cytometry, phage on T2 + Foxp3-7 peptide; secondary only 318, unstained 95.8.
Consider B9, for which the “Median:FITC-A” value worked out at 1880.
On to B10, for which the “Median:FITC-A” value was found to be 1130.

The next test concerns the target T1, HLA-A*02:01 on T2 cells alone (no …). In words: flow cytometry, phage on T2 cells.
B9: the binding result is listed as “no binding”.

The next test has as its target T4, R3 (RHAMM-R3) peptide/HLA-A*02:01 complex on T2 cells (human).
T4 construct: Control target of the phage staining of T2 cells; also called T2 cells pulsed with R3 peptide; RHAMM 3 (R3)
In words: flow cytometry, phage on T2 + R3 peptide; secondary only 126, unstained 94.4.
Turning to B1, the “Median:FITC-A” value came to 148.
Same read-out and setting: for B2 the value was 151.
For B3, the “Median:FITC-A” value came out at 141.
For B4, the “Median:FITC-A” value was determined as 157.
Take B5: the “Median:FITC-A” value was 145.
As for B6, the “Median:FITC-A” value amounted to 145.
Regarding B7, the “Median:FITC-A” value amounted to 142.
The same measure, in the same setting: for B8 the value was 148.

For another test, the target named is T4, R3 (RHAMM-R3) peptide/HLA-A*02:01 …. Briefly: flow cytometry, phage on T2 + R3 peptide; secondary only 123, unstained 99.8.
Consider B9, for which the “Median:FITC-A” value came to 144.
